The chains are these.
B1: Fatty acid-binding protein, intestinal, P02693 (parent)
chain: MAFDGTWKVDRNENYEKFMEKMGINVVKRKLGAHDNLKLTITQEGNKFTVKESSNFRNIDVVFELGVDFAYSLADGTELTGTWTMEGNKLVGKFKRVDNGKELIAVREISGNELIQTYTYEGVEAKRIFKKE

In this data set the parent is B1. The settings on record: Rattus norvegicus; pH 7; 25 °C; Urea; Fluorescence; NaPO4 25 mM; NaCl 75 mM; structure 1IFB; whole UniProt chain shown.

Values joined by “and” are separate entries in the source; they are usually repeats but may differ in a detail not shown here. Identical values can stand only once.

In the case of MAFDGTYKVDRNENYEKFMEKMGINVVKRKLGAHDNLKLTITQEGNKFTVKESSNFRNIDVVFELGVDFAYSLADGTELTGTWTMEGNKLVGKFKRVDNGKELIAVREISGNELIQTYTYEGVEAKRIFKKE [W7Y], the “ddG of mutation (higher = less stable)” value stood at 0.93 kcal/mol; the denaturant m value is 1.09 kcal/mol/M and 0.77 kcal/mol/M; the “denaturant midpoint (higher = more stable)” value (“denaturant midpoint” for short) was 3.52 M and 3.8 M; the unfolding free energy is 3.86 kcal/mol and 2.93 kcal/mol.

Consider MAFDGTWKVDRNENYEKFMEKMGINVVKRKLGAHDNLKLTITQEGNKFTVKESSNFRNIDVVFELGVDFAYSLADGTELTGTWTMEGNKLVGKAKRVDNGKELIAVREISGNELIQTYTYEGVEAKRIFKKE [F94A], for which the “ddG of mutation (higher = less stable)” value turned out to be 2.42 kcal/mol; the denaturant m value was 1.3 kcal/mol/M and 0.77 kcal/mol/M; the “denaturant midpoint” value was 1.83 M and 2.53 M; the unfolding free energy is 2.37 kcal/mol and 1.94 kcal/mol.

As for MAFDGTWKVDRNENYEKFMEKMGINVVKRKLGAHDNLKLTITQEGNKFTVKESSNFRNIDVVFELGVDFAYSLADGTELTGTYTMEGNKLVGKFKRVDNGKELIAVREISGNELIQTYTYEGVEAKRIFKKE [W83Y], the “ddG of mutation (higher = less stable)” value is -0.09 kcal/mol; the denaturant m value is 1.38 kcal/mol/M and 1.1 kcal/mol/M; the “denaturant midpoint” value is 3.54 M and 3.6 M; the unfolding free energy is 4.88 kcal/mol and 3.99 kcal/mol.

As for MAFDGTWKVDRNENYEKFMEKMGINVVKRKLGAHDNLKLTITQEGNKFTVKESSNFRNIDVVFELGVDAAYSLADGTELTGTWTMEGNKLVGKFKRVDNGKELIAVREISGNELIQTYTYEGVEAKRIFKKE [F69A], the “ddG of mutation (higher = less stable)” value is -1.38 kcal/mol, the denaturant m value is 1.76 kcal/mol/M, the “denaturant midpoint” value turned out to be 3.52 M and the unfolding free energy came out at 6.17 kcal/mol.
